According to FireProtDB (doi:10.1074/jbc.270.30.17712):
Several values for one entry are separate records, joined by “and”; a condition that tells them apart may be missing. Equal values may be shown once.

B1: Tryptophan synthase alpha chain, P0A877 (parent)
chain: MERYESLFAQLKERKEGAFVPFVTLGDPGIEQSLKIIDTLIEAGADALELGIPFSDPLADGPTIQNATLRAFAAGVTPAQCFEMLALIRQKHPTIPIGLLMYANLVFNKGIDEFYAQCEKVGVDSVLVADVPVEESAPFRQAALRHNVAPIFICPPNADDDLLRQIASYGRGYTYLLSRAGVTGAENRAALPLNHLVAKLKEYNAAPPLQGFGISAPDQVKAAIDAGAAGAISGSAIVKIIEQHINEPEKMLAALKVFVQPMKAATRS

Variants of: B1
Details: Escherichia coli (strain K12); pH 7.8; 23 °C; Urea; Absorbance; Potassium phosphate 10 mM; transition: 3; reversible: yes; structure 1WQ5; whole UniProt chain shown

| Variant | ddG of mutation (higher = less stable) | denaturant m value | denaturant midpoint (higher = more stable) | unfolding free energy |
| --- | --- | --- | --- | --- |
| F258W | 1.4 kcal/mol and 1 kcal/mol | 1.9 kcal/mol/M and 1.2 kcal/mol/M | 2.68 M and 3.58 M | 5 kcal/mol and 4.2 kcal/mol |
| F139W | 0.7 kcal/mol and 0.6 kcal/mol | 2.3 kcal/mol/M and 1.2 kcal/mol/M | 2.46 M and 3.8 M | 5.7 kcal/mol and 4.6 kcal/mol |
| F139W F258W | 0.8 kcal/mol | 2.1 kcal/mol/M and 1.3 kcal/mol/M | 2.67 M and 3.51 M | 5.6 kcal/mol and 4.4 kcal/mol |
